Test results published in article PMC11757143, “Generation and characterization of OX40-ligand fusion protein that agonizes OX40 on T-Lymphocytes” (Frontiers in Immunology, 2024).
Several values for one entry are separate records, joined by “and”; a condition that tells them apart may be missing. Equal values may be shown once.

B1: MBL-OX40L (ligand)
chain: not shown
notes: extracellular TNF homology domain (THD) of mouse OX40L (Tnfsf4), 51Ser-198Leu; Seen as dimer, trimer and hexamer on non-reducing gels; also called OX40L-fusion protein (A)
B2: MBL-scOX40L (ligand)
chain: not shown
notes: extracellular TNF homology domain (THD) of mouse OX40L (Tnfsf4), 51Ser-198Leu; first of three copies; peptide linker; second of three copies; third of three copies; Order N to C: PA, MBL, OX40L, Linker, OX40L, Linker, OX40L, His6; Seen as dimer, trimer and multimers on non-reducing gels; also called OX40L-fusion protein (E); source: Anti PA tag Antibody Beads; not shown: His6, C-terminal, kept
B3: Fc-MBL-OX40L (Fc fusion)
chain: not shown
notes: extracellular TNF homology domain (THD) of mouse OX40L (Tnfsf4), 51Ser-198Leu; Order N to C: Fc, PA, MBL, OX40L; Seen as dimer, hexamer and higher-order multimers on non-reducing gels; also called OX40L-fusion protein (B); not shown: Fc (human IgG1: hinge, CH2, CH3), N-terminal, kept

Biological target: the molecule itself
Experiment: non-reducing SDS-PAGE and immunoblot; recombinant OX40L proteins in Laemmli sample buffer, non-heated/non-reducing, SDS-PAGE, immunoblot with anti-PA tag antibody; oligomers judged by molecular weight

Protein | stoichiometry N
B1 | 2 and 3 and 6
B2 | 2 and 3
B3 | 2 and 6
